Measured values: patent US20250084155A1 (University of Texas, published 2025)
Substitutions are numbered along the chain they refer to.

How the values were obtained:
[1] = target: T1, HSP70 (human HSP70; the antigen of the binning, humanization and variant binding assays) (human, UniProt P0DMV8 1-641, limits assumed); assay: BLI, anti-human Fc capture, antigen 100 nM
T1 construct: also called hu HSP70
Protocol: Binding assays were performed as follows. Antibody variants were immobilized using anti-human Fc onto the surface of a series of biosensors at […]. Antigen, at 100 nM, was passed over the surface to generate a binding response. Binding data for the antibody:antigen interactions were collected at 25° C. on the biosensors. In Table 14, X=610 represents captured antigen value (nM) at the beginning of the dissociation phase (measured at 610 seconds after the biosensor was initially contacted with antigen) and X=1495 represents captured antigen value (nM) at the end of the dissociation phase (measured at 1495 seconds after the biosensor was initially contacted with antigen). In Table 14, antibodies with an X=610 value greater than 0.2 and a % dissociation less than 10% are shown in bold.

[2] = target: T1, HSP70 (human HSP70; the antigen of the …); assay: BLI, antibody on sensor
Protocol: Humanized variants were characterized for binding using biolayer interferometry (BLI). Chimeric antibodies including the murine 77A antigen binding region and human Fe regions were also tested. Antibodies and reagents were diluted out onto microwell plates and loaded into the instrument. Diluted antibodies were first immobilized onto dip-and-read sensors, and then measurements for baselines were acquired. Subsequently, the sensors were dipped into wells containing the antigen in solution, or buffer alone. The change in number of molecules bound to the sensor was quantified by measurement of the shift in the interference pattern of light during each step of the protocol. Mathematical modeling was performed based on those values and the concentrations of reagents used in the assay and used to calculate kinetics values.

T1 sequence (P0DMV8 whole entry, change not shown): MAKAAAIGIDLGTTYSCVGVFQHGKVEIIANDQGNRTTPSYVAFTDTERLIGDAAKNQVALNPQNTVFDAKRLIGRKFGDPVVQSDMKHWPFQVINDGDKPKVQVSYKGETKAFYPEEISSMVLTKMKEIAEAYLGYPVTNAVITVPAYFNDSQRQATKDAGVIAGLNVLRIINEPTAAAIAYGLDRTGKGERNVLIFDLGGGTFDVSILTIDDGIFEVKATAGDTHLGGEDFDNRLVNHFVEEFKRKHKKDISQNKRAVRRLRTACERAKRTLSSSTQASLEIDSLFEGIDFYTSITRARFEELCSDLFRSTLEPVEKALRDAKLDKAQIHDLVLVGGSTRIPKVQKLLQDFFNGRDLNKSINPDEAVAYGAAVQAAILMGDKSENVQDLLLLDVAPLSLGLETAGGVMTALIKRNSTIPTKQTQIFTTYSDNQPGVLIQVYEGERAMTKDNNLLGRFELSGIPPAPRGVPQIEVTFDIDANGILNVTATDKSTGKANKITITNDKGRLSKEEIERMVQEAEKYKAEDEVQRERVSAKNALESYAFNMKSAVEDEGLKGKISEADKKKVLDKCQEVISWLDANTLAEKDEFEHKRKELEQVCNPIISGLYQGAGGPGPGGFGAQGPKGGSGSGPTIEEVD

B1: h77A-1.37 (antibody, V domains shown)
VH: QIQLVQSGAEVKKPGASVKVSCKASGYTFTKYGMNWVRQAPGQGLEWMGWINTYTGESTYADDFKGRFTFTTDTSTSTAYMELRSLRSDDTAVYFCARYDHVMDYWGQGTLVTVSS
VL: EIVLTQSPDSLAVSLGERATINCKSSQSLLNSGTRKNYLAWYQQKAGQSPKLLIYWTSTRESGVPDRFSGSGSGTDFTLTIDSLQAEDVAVYYCKQSYTLYTFGGGTKVEIK
notes: captured by anti-human Fc
[1]
  % Diss: 22.8%

B2: h77A-1.43 (antibody, V domains shown)
VH: B1 VH with Q3H, K31N, S58P, A79V, V102A
VL: B1 VL with L53I
notes: captured by anti-human Fc
[1]
  % Diss: 21.1%

B3: h77A-1.62 (antibody, V domains shown)
VH: B1 VH with K31N, S58P, S77T, A79G, V102A
VL: B1 VL with N22K, G70A
notes: captured by anti-human Fc
[1]
  % Diss: 12.3%

B4: h77A-1.63 (antibody, V domains shown)
VH: B1 VH with K31N, S58P, V102A, T110S
VL: B1 VL with A40T, A46S, V91I
notes: captured by anti-human Fc
[1]
  % Diss: 14.2%

B5: h77A-1.48 (antibody, V domains shown)
VH: B1 VH with K31N, S58P, E82D, V102Y
VL: B1 VL with A46P
notes: captured by anti-human Fc
[1]
  % Diss: 34.5%

B6: h77A-1.57 (antibody, V domains shown)
VH: B1 VH with K31N, S58A
VL: B1 VL with L30V, A86T
notes: captured by anti-human Fc
[1]
  % Diss: 25.9%

B7: h77A-1.55 (antibody, V domains shown)
VH: B1 VH with A9S, K31N, S58P, A61G, V102F
VL: B1 VL with A12S
notes: captured by anti-human Fc
[1]
  % Diss: 26.7%

B8: h77A-1.50 (antibody, V domains shown)
VH: B1 VH with Q3H, A9V, K31N, S58P, A61T, V102A
VL: B1 VL with V91I
notes: captured by anti-human Fc
[1]
  % Diss: 11.2%

B9: h77A-1.54 (antibody, V domains shown)
VH: B1 VH with S58P, T59K, A61G, V102R
VL: B1 VL
notes: captured by anti-human Fc
[1]
  % Diss: -41.2%

B10: h77A-1.40 (antibody, V domains shown)
VH: B1 VH with K31N, S58P, V102Y
VL: B1 VL with A12T, T99N
notes: captured by anti-human Fc
[1]
  % Diss: 11.9%

B11: h77A-1.64 (antibody, V domains shown)
VH: B1 VH with K31N, V102A
VL: B1 VL with Q44K, T80S, V91I
notes: captured by anti-human Fc
[1]
  % Diss: 21%

B12: h77A-3 (antibody, V domains shown)
VH: B1 VH with K31N, S58P, V102A
VL: B1 VL with E1D, I2V, L4M, A19V, A46P, D82S, G105Q, V109L
[2]
  Kd: 4.9 nM
  koff: 0.000305 s⁻¹
  kon: 62300 M⁻¹ s⁻¹

B13: h77A-1.47 (antibody, V domains shown)
VH: B1 VH with A9T, K31N, S58P, V102L
VL: B1 VL with A86T
notes: captured by anti-human Fc
[1]
  % Diss: 13.6%

B14: h77A-1.52 (antibody, V domains shown)
VH: B1 VH with A9V, T28I, K31N, S58P, T59R, V102R
VL: B1 VL
notes: captured by anti-human Fc
[1]
  % Diss: -115%

B15: h77A-1.92 (antibody, V domains shown)
VH: B1 VH with T28S, K31N, S58P, A61G, V102A
VL: B1 VL with A12T, L30F, Q44K, T99N
notes: captured by anti-human Fc
[1]
  % Diss: 32.4%

B16: h77A-1.76 (antibody, V domains shown)
VH: B1 VH with A9V, K31N, S58T, L83V, V102A
VL: B1 VL with L30F, T80S
notes: captured by anti-human Fc
[1]
  % Diss: 12.1%

B17: h77A-1.79 (antibody, V domains shown)
VH: B1 VH with S58P, T59R, V102R
VL: B1 VL with A46P, T99N
notes: captured by anti-human Fc
[1]
  % Diss: -37.4%

B18: h77A-1.45 (antibody, V domains shown)
VH: B1 VH with A9V, K31N, S58P, A79V, V102A
VL: B1 VL with T99S
notes: captured by anti-human Fc
[1]
  % Diss: 33.9%

B19: h77A-1.70 (antibody, V domains shown)
VH: B1 VH with K31N, S58P, A61S, V102A
VL: B1 VL with A12S, Q44K, S83R, V91L
notes: captured by anti-human Fc
[1]
  % Diss: 11.6%

B20: h77A-1.65 (antibody, V domains shown)
VH: B1 VH with K31N, S58A, V102A, T110S
VL: B1 VL with A46S, V91I
notes: captured by anti-human Fc
[1]
  % Diss: 20.5%

B21: h77A-1.80 (antibody, V domains shown)
VH: B1 VH with K31N, S58P, T59K
VL: B1 VL with A40S, A46P, L53I
notes: captured by anti-human Fc
[1]
  % Diss: -8.84%

B22: h77A-6 (antibody, V domains shown)
VH: B1 VH with A16S, K31N, S58P, T72A, T74E, R84S, D89E, V102A
VL: B1 VL
[2]
  Kd: 2.64 nM
  koff: 0.00014 s⁻¹
  kon: 53100 M⁻¹ s⁻¹

B23: h77A-1.66 (antibody, V domains shown)
VH: B1 VH with T28I, K31N, A79V, V102A
VL: B1 VL with N22K
notes: captured by anti-human Fc
[1]
  % Diss: 32.1%

B24: h77A-1.42 (antibody, V domains shown)
VH: B1 VH with Q3H, K31N, S58P, A97T, V102R
VL: B1 VL
notes: captured by anti-human Fc
[1]
  % Diss: 33.5%

B25: h77A-1.96 (antibody, V domains shown)
VH: B1 VH with K31N, S58P, V102A
VL: B1 VL with E1D, L4M, A46P, D82S, G105Q, V109L
notes: captured by anti-human Fc
[1]
  % Diss: 18.8%

B26: h77A-1.97 (antibody, V domains shown)
VH: B1 VH with K31N, S58P, F70M, V102A
VL: B1 VL with E1D, L4M, A46P, D82S, G105Q, V109L
notes: captured by anti-human Fc
[1]
  % Diss: 27.2%

B27: h77A-1.39 (antibody, V domains shown)
VH: B1 VH with K31N, S58P, A61S, S77R, V102A
VL: B1 VL with T99N
notes: captured by anti-human Fc
[1]
  % Diss: 21%

B28: h77A-1.72 (antibody, V domains shown)
VH: B1 VH with A9P, T28I, K31N, S58T, S77T, A79V, V102A
VL: B1 VL
notes: captured by anti-human Fc
[1]
  % Diss: 31.5%

B29: h77A-11 (antibody, V domains shown)
VH: QVQLQQSGPEVKKPGASVKISCKTSGYTFTNYGMNWVRQAPGQGLEWMGWINTYTGEPTYADDFKGRVTMTTDTSTSTAYLELTGLMSDDTAVYFCARYDHAMDYWGQGTTVTVSS
VL: B1 VL
[2]
  Kd: 4.23 nM
  koff: 0.000189 s⁻¹
  kon: 44600 M⁻¹ s⁻¹

B30: h77A-1.53 (antibody, V domains shown)
VH: B1 VH with K31N, S58P, T59K, A61T, S77R, V102A
VL: B1 VL with A12S
notes: captured by anti-human Fc
[1]
  % Diss: 11.1%

B31: h77A-10 (antibody, V domains shown)
VH: B1 VH with A16S, K31N, S58P, T72A, T74E, R84S, D89E, V102A
VL: B1 VL with E1D, L4M, A46P, D82S, V109L
[2]
  Kd: 7.1 nM
  koff: 0.000409 s⁻¹
  kon: 57700 M⁻¹ s⁻¹

B32: h77A-1.38 (antibody, V domains shown)
VH: B1 VH with A9T, K31N, S58P, S77R, V102L
VL: B1 VL
notes: captured by anti-human Fc
[1]
  % Diss: 10.5%

B33: h77A-5 (antibody, V domains shown)
VH: B1 VH with K31N, S58P, V102A
VL: B1 VL with E1D, L4M, A46P, D82S, V109L
[2]
  Kd: 6.87 nM
  koff: 0.000353 s⁻¹
  kon: 51400 M⁻¹ s⁻¹

B34: h77A-1.85 (antibody, V domains shown)
VH: B1 VH with Q3H, T28I, K31N, S58P, A97V, V102A
VL: B1 VL with A40S, Q44K, A46S
notes: captured by anti-human Fc
[1]
  % Diss: 16.1%

B35: h77A-1.41 (antibody, V domains shown)
VH: B1 VH with K31N, S58P, S77T
VL: B1 VL with A46P
notes: captured by anti-human Fc
[1]
  % Diss: 34.2%

B36: h77A-2 (antibody, V domains shown)
VH: B1 VH with K31N, S58P, V102A
VL: B1 VL with E1D, L4M, A12S, A46P, S49P, K51R, D82N, S83T, G105Q, V109L
[2]
  Kd: 5.13 nM
  koff: 0.000308 s⁻¹
  kon: 59900 M⁻¹ s⁻¹

B37: h77A-1.98 (antibody, V domains shown)
VH: B1 VH with K31N, S58P, F70M, V102A
VL: B1 VL
notes: captured by anti-human Fc
[1]
  % Diss: 34.5%

B38: h77A-1.81 (antibody, V domains shown)
VH: B1 VH with Q3H, T28I, K31N, S58P, A79V, A97V, V102A
VL: B1 VL with L30F
notes: captured by anti-human Fc
[1]
  % Diss: 30.1%

B39: h77A-1.91 (antibody, V domains shown)
VH: B1 VH with Q3H, T28I, K31N, S58P, A79V, A97V, V102A
VL: B1 VL with A12S, L30F
notes: captured by anti-human Fc
[1]
  % Diss: 30.7%

B40: h77A-1.86 (antibody, V domains shown)
VH: B1 VH with A9V, K31N, S58T, V102A
VL: B1 VL with L30F, Q44K, T80S, S83R
notes: captured by anti-human Fc
[1]
  % Diss: 14.1%

B41: h77A-1.77 (antibody, V domains shown)
VH: B1 VH with A9P, T28I, K31N, S58P, A61G, A97G, V102A
VL: B1 VL with S83R
notes: captured by anti-human Fc
[1]
  % Diss: 32.5%
